Binding result and Kd data for one molecule are collected here from patent US20200087405A1 (UNIVERSITY OF SASKATCHEWAN, published 2020).

Bounds are passed on as bounds.

Assay [1] addresses T1, Fc-tagged ECD of ErbB2 (ErbB family member, R&D 1129-ER) (human, UniProt P04626 23-652).
T1 construct: extracellular domain; not shown: Fc tag of the bought protein
Put plainly: single point Fab-phage ELISA on immobilized protein. (In an ELISA, binding on a coated surface is turned into a signal by an enzyme label.)

The target in assay [2] is T2, Fc-tagged ECD of ErbB3 (R&D 348-RB) (human, UniProt P21860 20-643).
T2 construct: extracellular domain; also called ErbB family member; not shown: Fc tag of the bought protein
The description is as above.

Assay [3] addresses T3, Fc-tagged ECD of ErbB4 (ErbB family member, R&D 1131-ER) (human, UniProt Q15303 26-651).
T3 construct: extracellular domain; not shown: Fc tag of the bought protein
T3 sequence (looked up): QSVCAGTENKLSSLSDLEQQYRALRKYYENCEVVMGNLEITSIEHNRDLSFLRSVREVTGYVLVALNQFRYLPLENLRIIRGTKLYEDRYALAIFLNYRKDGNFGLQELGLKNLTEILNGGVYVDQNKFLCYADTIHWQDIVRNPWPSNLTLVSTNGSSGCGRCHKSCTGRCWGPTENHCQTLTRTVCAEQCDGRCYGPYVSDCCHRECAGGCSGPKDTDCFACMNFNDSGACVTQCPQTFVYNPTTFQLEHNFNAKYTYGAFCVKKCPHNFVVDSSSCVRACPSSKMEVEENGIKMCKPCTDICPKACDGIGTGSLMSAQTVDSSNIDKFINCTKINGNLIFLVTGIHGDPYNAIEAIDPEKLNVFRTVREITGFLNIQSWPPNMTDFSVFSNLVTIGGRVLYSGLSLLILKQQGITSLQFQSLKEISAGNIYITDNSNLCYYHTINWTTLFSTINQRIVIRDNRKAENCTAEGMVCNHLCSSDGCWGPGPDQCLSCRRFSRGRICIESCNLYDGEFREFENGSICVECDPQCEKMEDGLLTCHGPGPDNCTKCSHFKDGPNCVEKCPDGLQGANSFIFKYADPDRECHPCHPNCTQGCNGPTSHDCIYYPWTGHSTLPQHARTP
The description is as above.

Assay [4] addresses T4, cell-surface EGFR (endogenous on A431, MDA-MB-231 and other cancer cell lines); pBABE-EGFR transfected 293T … (UniProt P00533 25-1210, limits assumed).
T4 construct: whole, on cells; Untagged EGFR on cells; also called endogenous cell-surface EGFR; EGFR1
As to the kind of experiment: flow cytometry on A431 cells, 800CW-labelled fragment.

Assay [5] deals with T5, Fc-tagged extracellular domain (ECD) of the recombinant human EGFR (rhEGFR) (human, UniProt P00533 25-645).
T5 construct: extracellular domain; also called rhEGFR-ECD; rhEGFR-ECD-Fc; not shown: Fc tag of the bought protein (R&D 344-ER)
Put plainly: apparent affinity by multi-point competitive ELISA using purified EGFR, Fab-phage; Fab-phage, first account of the DL06 selection.

B1: Fab DL06 (Fab)
heavy: EVQLVESGGGLVQPGGSLRLSCAASGFNISSSSIHWVRQAPGKGLEWVAYISSYYSSTYYADSVKGRFTISADTSKNTAYLQMNSLRAEDTAVYYCARTYCPPLMLYNPTTYQMDVNPEGKYSFGATCGWAMDYWGQGTLVTVSSASTKGPSVFPLAPSSKSTSGGTAALGCLVKDYFPEPVTVSWNSGALTSGVHTFPAVLQSSGLYSLSSVVTVPSSSLGTQTYICNVNHKPSNTKVDKKVEPKSCDKTHT
light: DIQMTQSPSSLSASVGDRVTITCRASQSVSSAVAWYQQKPGKAPKLLIYSASSLYSGVPSRFSGSRSGTDFTLTISSLQPEDFATYYCQQWSYYPITFGQGTKVEIKRTVAAPSVFIFPPSDSQLKSGTASVVCLLNNFYPREAKVQWKVDNALQSGNSQESVTEQDSKDSTYSLSSTLTLSKADYEKHKVYACEVTHQGLSSPVTKSFNRGECGGSDYKDDDDK
notes: Fab with the EGFR dimerization loop grafted in CDR-H3; the light chain entry ends in a FLAG tag; also called DL06 Fab; parent clone DL06
As to B1, the figures for the binding result in assay [1], in assay [2] and in assay [3] were “no binding”, “binds” and “no binding”, respectively. Further, the Kd is above 1000 nM in assay [4] and above 100 nM in assay [5].
